The target in data set [1] is CP4 EPSPS (Agrobacterium sp., UniProt Q9R4E4). In words: substrate saturation kinetic analysis (kcat, Km, Ki). The class given is biochemical, Agrobacterium sp. strain CP4. As to the method:
EPSPS activity was determined by quantifying the phosphate generated from the EPSPS reaction. Release of inorganic phosphate was coupled to its reaction with 2-amino-6-mercapto-7-methylpurine ribonucleoside (MESG), catalyzed by purine nucleoside phosphorylase, according to previously described protocols. To determine the kcat gly, enzyme preparations were normalized to 0.1 mg/ml and four- to six-microliter aliquots of normalized enzyme were added to the wells of a low UV-absorbing 96-well assay plate (Greiner UV-Star). Reactions were started with the addition of 2×147 μl of reaction mixture containing 25 mM Hepes, pH 7.0, 100 mM KCl, 5% ethylene glycol, 30 μM each of PEP and S3P, 0.15 mM MESG, 1.5 U/ml purine nucleoside phosphorylase (Sigma N8264) and 1 mM glyphosate. Absorbance was monitored at 4 sec intervals for 50 sec with a Spectramax plate reader (Molecular Devices). […] Division by the enzyme concentration (0.04 to 0.1 uM, depending on activity) yields “kcat gly” in units of min^−1.
Combinatorial shuffling, maize native EPSPS—The mutations discovered were used to construct a combinatorial library designed to explore combinations of the desensitizing mutations in novel sequence contexts provided by the newly identified neutral mutations. Note that the amino acid position numbering in this Example 10 refers to the relative position of native maize EPSPS without the N-terminal Met. Therefore, G101A in this Example would be G102A in reference to SEQ ID NO: 1, wherein the maize EPSPS sequence has a Met added at the N-terminal. The diversity used was the same with the addition of G101A, T102 (IALGV) and P106(WA). In all, 43 substitutions at 29 positions were selected. The library was synthesized entirely from oligonucleotides, using the known technique of synthetic shuffling and was termed NatFS (Native, fully synthetic). The vector DNA of the library was transformed into the BL21(DE3) Tuner-AroA knockout strain and the cells were plated onto M9 medium containing either 30 mM glyphosate and 30 μM of the lac operon inducer isopropyl β-D-1-thiogalactopyranoside (IPTG) or 50 mM glyphosate and no IPTG. The 184 colonies that grew on either plate were picked and subjected to a second tier of screening in which EPSPS proteins were purified and activity measured at high (200 μM) and low (50 μM) PEP and S3P, with or without 10 μM glyphosate. Selected variants were subjected to substrate saturation kinetic analysis.

The target in data set [2] is EPSPS from Agrobacterium sp. strain CP4 (Agrobacterium sp., UniProt Q9R4E4). In words: kgly: enzyme turnover at 30 μM PEP and S3P, 1 mM glyphosate, CP4 EPSPS. The class given is biochemical. An excerpt:
A customized parameter for predicting performance in the treated plant that would be a more accurate representation than kcat/Km*Ki. […] However, kcat/Km*Ki may be inadequate for predicting the reaction velocity under the conditions of the application (plants sprayed with glyphosate) because it may neglect concentrations of substrate and inhibitor, factors that are not intrinsic to the enzyme, but on which the reaction rate depends. Therefore, libraries derived from C1 on in FIG. 2 were evaluated with a single rate measurement designed to take all factors in the rate equation for competitive inhibition into account. […] Glyphosate was included at 1 mM, a concentration attainable in tissues, especially meristems, receiving metabolite flow from treated leaves. The pH (7.0), ionic strength (100 mM KCl) and co-solvent concentration (5% ethylene glycol) were also intended to mimic in vivo conditions. The unit for the parameter is reaction rate (μM·min^−1) per enzyme concentration (μM), or min^−1, describing the enzyme turnover under application conditions, which we abbreviate as “kgly”. Although individual kinetic parameters for key variants were obtained, kgly was adopted a parameter needed both for medium throughput screening and for ultimate evaluation of fitness.

Where two headings read alike, the source gives them in different places.

B1: CP4 EPSPS: Class II EPSPS from Agrobacterium sp. strain CP4 (protein, UniProt Q9R4E4 1-455, looked up)
3-phosphoshikimate …: MSHGASSRPATARKSSGLSGTVRIPGDKSISHRSFMFGGLASGETRITGLLEGEDVINTGKAMQAMGARIRKEGDTWIIDGVGNGGLLAPEAPLDFGNAATGCRLTMGLVGVYDFDSTFIGDASLTKRPMGRVLNPLREMGVQVKSEDGDRLPVTLRGPKTPTPITYRVPMASAQVKSAVLLAGLNTPGITTVIEPIMTRDHTEKMLQGFGANLTVETDADGVRTIRLEGRGKLTGQVIDVPGDPSSTAFPLVAALLVPGSDVTILNVLMNPTRTGLILTLQEMGADIEVINPRLAGGEDVADLRVRSSTLKGVTVPEDRAPSMIDEYPILAVAAAFAEGATVMNGLEELRVKESDRLSAVANGLKLNGVDCDEGETSLVVRGRPDGKGLGNASGAAVATHLDHRIAMSFLVMGLVSENPVTVDDATMIATSFPEFMDLMAGLGAKIELSDTKAA
With B1, the kcat in data set [1] (CP4 EPSPS) came out at 6.85 ± 0.083 s⁻¹. Moreover, the Ki in data set [1] (Ki for glyphosate) is 1.97 ± 0.276 mM. Moreover, the Km stood at 5.2 ± 0.5 µM in data set [1] (apparent Km, PEP present at 10 times its Km, read-out: Km S3P); 15.5 ± 0.4 µM in data set [1] (apparent Km, S3P present at 10 times its Km, read-out: Km PEP); 15.5 µM in data set [1] (read-out: Km for PEP). The “kcat/Km*Ki” value in data set [1] (calculated with Km for PEP) is 52240. Further, in data set [2], the kgly was determined as 176 ± 1.6 min⁻¹.

The values are drawn from US20200392528A1, “IMPROVED PLANT EPSP SYNTHASES AND METHODS OF USE” (PIONEER HI-BRED INTERNATIONAL, INC., priority 2017, published 2020).
